# Assay results as given in US20110158992A1 (SCHERING, published 2011).
# T1: human IL-23R (human, UniProt Q5VWK5 24-353, limits assumed)
# T1 construct: also called huIL-23R; human interleukin-23R
# T1 sequence: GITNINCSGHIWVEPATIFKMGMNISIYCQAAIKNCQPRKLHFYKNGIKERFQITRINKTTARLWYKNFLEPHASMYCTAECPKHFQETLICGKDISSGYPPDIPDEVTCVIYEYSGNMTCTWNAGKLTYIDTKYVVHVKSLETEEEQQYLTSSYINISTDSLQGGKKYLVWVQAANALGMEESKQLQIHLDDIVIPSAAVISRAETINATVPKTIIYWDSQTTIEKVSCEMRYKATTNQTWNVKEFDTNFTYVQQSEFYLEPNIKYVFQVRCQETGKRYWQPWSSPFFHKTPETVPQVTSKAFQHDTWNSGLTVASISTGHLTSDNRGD
# How the values were obtained:
# human IL-23R [1] = molecular target: T1, human IL-23R; test: KinExA
# Procedure: (§1) The equilibrium dissociation constants (Kd) for anti human IL-23R antibodies are determined using the KinExA. 3000 instrument. Sapidyne Instruments Inc., Boise Id., USA. KinExA uses the principle of the Kinetic Exclusion Assay method based on measuring the concentration of uncomplexed antibody in a mixture of antibody, antigen and antibody-antigen complex. The concentration of free antibody is measured by exposing the mixture to a solid-phase immobilized antigen for a very brief period of time. In practice, this is accomplished by flowing the solution phase antigen-antibody mixture past antigen-coated particles trapped in a flow cell. Data generated by the instrument are analyzed using custom software. Equilibrium constants are calculated using a mathematical theory based on the lowing assumptions: [0177] 1. The binding follows the reversible binding equation for equilibrium: […]
# PMMA particles (Sapidyne, Cat No. 440198) are coated with biotinylated IL-23R (or a fragment thereof, such as the extracellular domain) according to Sapidyne “Protocol for coating PMMA particles with biotinylated ligands having short or nonexistent linker arms.” EZ-link TFP PEO-biotin (Pierce, Cat. No. 21219) is used to make biotinylated IL-23R, as per the manufacturer's recommendations (Pierce bulletin 0874).
# human IL-23R [2] = molecular target: T1, human IL-23R; test: BIAcore SPR, antibody immobilised
# Procedure: (§2) BIAcore® label-free interaction analysis system determinations are performed essentially as described at Example 4 of U.S. Patent Application Publication No. 2007/0048315, which is hereby incorporated by reference. Briefly, ligands (anti-IL-23R mAbs) are immobilized on a BIAcore® label-free interaction analysis system CM5 sensor chip using standard amine-coupling procedure. Kinetic constants for the various interactions are determined using BIAevaluation software 3.1. The Kd is determined using the calculated dissociation and association rate constants.
# human IL-23R [3] = molecular target: T1, human IL-23R; test: BIAcore SPR, antibody immobilised; remark: listed apart in the source
# Procedure: as §2
# Several sequence variants intended to increase the chemical stability of hu8B10-b were produced to evaluate their effects on binding affinity. Kd values are provided at Table 3. Binding to human IL-23R was determined using the BIAcore® label-free interaction analysis system (surface plasmon resonance), essentially as described in Example 4 (supra). Chimeric forms, designated as “chim,” refers to rat variable domains linked to human IgG1 heavy chain and human kappa light chain constant domains, e.g., as presented at SEQ ID NOs: 16 and 17, respectively, or as at SEQ ID NOs: 22 and 23, respectively. Sequences for heavy and light chain variable domains are provided at FIGS. 1 and 2, and in the Sequence Listing (as described at Table 4). Antibodies incorporate the sequence changes recited in the table (“Variant(s)”) for the respective heavy and light chains. Data arc presented as mean±standard deviation for multiple determinations, and without error estimates for single determinations.
# human IL-23R [4] = molecular target: T1, human IL-23R; test: KinExA, full-length chimeric antibody; original sequence (no N31T)
# Procedure: as §1
# (§3) PMMA particles (Sapidyne, Cat No. 440198) are coated with biotinylated IL-23R (or a fragment thereof, such as the extracellular domain) according to Sapidyne “Protocol for coating PMMA particles with biotinylated ligands having short or nonexistent linker arms.” EZ-link TFP PEO-biotin (Pierce, Cat. No. 21219) is used to make biotinylated IL-23R, as per the manufacturer's recommendations (Pierce bulletin 0874). […]
# human IL-23R [5] = molecular target: T1, human IL-23R; test: KinExA, full-length chimeric antibody
# Procedure: as §1, §3
# human IL-23R [6] = molecular target: T1, human IL-23R; test: KinExA, full-length chimeric antibody; N31T variant, full-length chimeric
# Procedure: as §1, §3
Kd (human IL-23R [1]),Kd (human IL-23R [2]),Kd (human IL-23R [3]),Kd (human IL-23R [4]),fold improvement in binding affinity against the original sequence (human IL-23R [5]),Kd (human IL-23R [6]),Binder
0.042 nM,~0.3 nM,0.27 nM,,,,"rat anti-human IL-23R antibody 8B10 (antibody, rat IgG2a, V domains shown, also called r8B10) VH: EVKLVESGGGLEQPKGSLKLSCTVSGFDFNSYGMSWVRQAPGKGLDLVADINSKSYNYATYYADSVKDRFTISRDDSQSMVYLEMDNLKTEDTALYYCTVHHSDYFEYWGQGVMVTVSS VL: DIQMTQSPASLSASLGETVSIECLASEDIYNNLAWYQQKPGKSPQLLIYHASSLQDGVPSRFSGSGSGTQYSLKINSLESEDAATYFCLQDSEYPPTFGGGTKLELKR"
,,0.345 nM,0.025 nM,,,"chimeric 8B10 full-length antibody (antibody, V domains shown, also called chim8B10) VH: EVKLVESGGGLEQPKGSLKLSCTVSGFDFNSYGMSWVRQAPGKGLDLVADINSKSYNYATYYADSVKDRFTISRDDSQSMVYLEMDNLKTEDTALYYCTVHHSDYFEYWGQGVMVTVSS VL: DIQMTQSPASLSASLGETVSIECLASEDIYNNLAWYQQKPGKSPQLLIYHASSLQDGVPSRFSGSGSGTQYSLKINSLESEDAATYFCLQDSEYPPTFGGGTKLELKR"
,,,,3 fold,8 pM,"full-length chimeric 8B10 antibody, VL N31T (antibody, V domains shown, also called N31T variant) VH: EVKLVESGGGLEQPKGSLKLSCTVSGFDFNSYGMSWVRQAPGKGLDLVADINSKSYNYATYYADSVKDRFTISRDDSQSMVYLEMDNLKTEDTALYYCTVHHSDYFEYWGQGVMVTVSS VL: DIQMTQSPASLSASLGETVSIECLASEDIYTNLAWYQQKPGKSPQLLIYHASSLQDGVPSRFSGSGSGTQYSLKINSLESEDAATYFCLQDSEYPPTFGGGTKLELKR"
